T1: RAP74, P35269
T1 chain: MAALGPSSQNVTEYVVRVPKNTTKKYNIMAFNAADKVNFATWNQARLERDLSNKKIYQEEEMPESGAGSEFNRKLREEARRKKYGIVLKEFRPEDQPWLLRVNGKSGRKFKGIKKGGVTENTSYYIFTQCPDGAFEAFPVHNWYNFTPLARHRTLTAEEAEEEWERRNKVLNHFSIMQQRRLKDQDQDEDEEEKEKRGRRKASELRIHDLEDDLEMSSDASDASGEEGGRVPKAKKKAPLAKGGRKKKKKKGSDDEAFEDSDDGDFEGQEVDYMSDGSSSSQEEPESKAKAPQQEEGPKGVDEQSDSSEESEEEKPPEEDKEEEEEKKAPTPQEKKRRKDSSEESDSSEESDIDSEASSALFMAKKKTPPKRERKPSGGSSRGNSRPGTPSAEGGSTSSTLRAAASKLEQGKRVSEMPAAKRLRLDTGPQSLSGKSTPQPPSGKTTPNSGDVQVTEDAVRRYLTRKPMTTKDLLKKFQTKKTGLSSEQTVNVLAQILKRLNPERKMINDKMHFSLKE

B1: FCP1 (protein)
chain: MEVPAAGRVPAEGAPTAAVAEVRCPGPAPLRLLEWRVAAGAAVRIGSVLAVFEAAASAQSSGASQSRVASGGCVRPARPERRLRSERAGVVRELCAQPGQVVAPGAVLVRLEGCSHPVVMKGLCAECGQDLTQLQSKNGKQQVPLSTATVSMVHSVPELMVSSEQAEQLGREDQQRLHRNRKLVLMVDLDQTLIHTTEQHCQQMSNKGIFHFQLGRGEPMLHTRLRPHCKDFLEKIAKLYELHVFTFGSRLYAHTIAGFLDPEKKLFSHRILSRDECIDPFSKTGNLRNLFPCGDSMVCIIDDREDVWKFAPNLITVKKYVYFQGTGDMNAPPGSRESQTRKKVNHSRGTEVSEPSPPVRDPEGVTQAPGVEPSNGLEKPARELNGSEAATPRDSPRPGKPDERDIWPPAQAPTSSQELAGAPEPQGSCAQGGRVAPGQRPAQGATGTDLDFDLSSDSESSSESEGTKSSSSASDGESEGKRGRQKPKAAPEGAGALAQGSSLEPGRPAAPSLPGEAEPGAHAPDKEPELGGQEEGERDGLCGLGNGCADRKEAETESQNSELSGVTAGESLDQSMEEEEEEDTDEDDHLIYLEEILVRVHTDYYAKYDRYLNKEIEEAPDIRKIVPELKSKVLADVAIIFSGLHPTNFPIEKTREHYHATALGAKILTRLVLSPDAPDRATHLIAARAGTEKVLQAQECGHLHVVNPDWLWSCLERWDKVEEQLFPLRDDHTKAQRENSPAAFPDREGVPPTALFHPMPVLPKAQPGPEVRIYDSNTGKLIRTGARGPPAPSSSLPIRQEPSSFRAVPPPQPQMFGEELPDAQDGEQPGPSRRKRQPSMSETMPLYTLCKEDLESMDKEVDDILGEGSDDSDSEKRRPEEQEEEPQPRKPGTRRERTLGAPASSERSAAGGRGPRGHKRKLNEEDAASESSRESSNEDEGSSSEADEMAKALEAELNDLM
B2: GST-SCP1 214 (protein)
chain: MMGRPCLLTAGRPCLWRRMAPSLRQTPVQYLLPEAKAQDSDKICVVIDLDETLVHSSFKPVNNADFIIPVEIDGVVHQVYVLKRPHVDEFLQRMGELFECVLFTASLAKYADPVADLLDKWGAFRARLFRESCVFHRGNYVKDLSRLGRDLRRVLILDNSPASYVFHPDNAVPVASWFDNMSDTELHDLLPFFEQLSRVDDVYSVLRQPRPGS
B3: SCP1 261 (protein)
chain: MDSSAVITQISKEEARGPLRGKGDQKSAASQKPRSRGILHSLFCCVCRDDGEALPAHSGAPLLVEENGAIPKTPVQYLLPEAKAQDSDKICVVIDLDETLVHSSFKPVNNADFIIPVEIDGVVHQVYVLKRPHVDEFLQRMGELFECVLFTASLAKYADPVADLLDKWGAFRARLFRESCVFHRGNYVKDLSRLGRDLRRVLILDNSPASYVFHPDNAVPVASWFDNMSDTELHDLLPFFEQLSRVDDVYSVLRQPRPGS

Assays:
[1] = biological target: Ser 2 phosphopeptide (28 aa CTD peptide, 4 heptad repeats)
[2] = biological target: Ser 5 phosphopeptide (28 aa CTD peptide, 4 heptad repeats)
RAP74, P35269 = biological target: T1, RAP74, P35269

Row | Protein | CTD phosphatase assay (mobility shift of GST-CTDo to GST-CTDa) (GST-CTDo) | phosphate released from phosphopeptide (malachite green) [1] | phosphate released from phosphopeptide (malachite green) [2] | CTD phosphatase activity (dephosphorylation of RNAP IIO prepared by TFIIH), with and without 7 pmol RAP74 (RAP74, P35269)
1 | B1 | FCP1 does not dephosphorylate rCTDo even at concentrations 100 times higher than that required to dephosphorylate RNAP IIO | Mammalian FCP1, within a comparable concentration range, did not act on either phosphopeptide | Mammalian FCP1, within a comparable concentration range, did not act on either phosphopeptide | 
2 | B2 | SCP1 dephosphorylates rCTDo and RNAP IIO with comparable efficiency | SCP1 preferentially dephosphorylates the Ser 5 phosphopeptide compared to the Ser 2 phosphopeptide | SCP1 preferentially dephosphorylates the Ser 5 phosphopeptide compared to the Ser 2 phosphopeptide | 
3 | B3 |  |  |  | RAP74 shifted the dose response curve for SCP1 catalyzed dephosphorylation of RNAP IIO to an approximately 10-fold lower concentration

From patent US20070172470
